Measured values: publication PMC12363188 (2025)

Key:
[1] = biological target: T1, SARS-CoV-2 S-RBD (residues 330 to 530) (SARS-CoV-2, UniProt P0DTC2 330-530); assay: SPR
[2] = biological target: T1, SARS-CoV-2 S-RBD (residues 330 to 530); assay: SPR; remark: listed apart in the source

B1: Rhinolophus pusillus bat ACE2 ectodomain (residues 18 to 615) (domain or fragment)
chain: QSITEDKAKKFLNDFNSEAEDLSYQSSLASWDYNTNISDENVQKMDEAGAKWSAFYEEQSKIAKNYPLEEIQTDIVKRQLQILQQSGSPVLSEDKSKRLNSILNAMSTIYSTGKVCKPNNPQECLLLEPGLDNIMGTSKDYHERLWAWEGWRAEVGKQLRPLYEEYVVLKNEMARGYHYEDYGDYWRRDYETEESSGPGYSRDQLMKDVDRIFTEIKPLYEHLHAYVRAKLMDTYPLHISPTGCLPAHLLGDMWGRFWTNLYPLTVPFGQKPNIDVTDEMVKQGWDANRIFKEAEKFFVSVGLPNMTEGFWNNSMLTEPGDGRKVVCHPTAWDLGKGDFRIKMCTKVTMEDFLTAHHEMGHIQYDMAYASQPYLLRNGANEGFHEAVGEVMSLSVATPKHLKTMGLLSPDFREDDETEINFLLKQALNIVGTLPFTYMLEKWRWMVFKGEIPKEEWMKKWWEMKREIVGVVEPVPHDETYCDPASLFHVANDYSFIRYYTRTIFEFQFHEALCRIAQHNGPLHKCDISNSTDAGKKLHQMLSVGKSQAWTKTLEDIVGSRNMDVGPLLRYFKPLYTWLQEQSRKSYVGWNTDWSPYSD
koff [1]: 0.00152 s⁻¹
Kd [2]: 45.3 nM
